Reference: the Human Domainome abundance scans (Beltran et al. 2025)

B1: Unconventional myosin-Ie, residues 1051 to 1108; numbered along this chain, Q12965 (parent)
chain: PQVPQCKALYAYDAQDTDELSFNANDIIDIIKEDPSGWWTGRLRGKQGLFPNNYVTKI

Variants of: B1
Test: abundance fitness (aPCA) (normalised: wild type 0, dead -1); higher = more abundant; growth selection in yeast, the domain comes from the species named
Details: Homo sapiens

Abundance fitness: each site, then its substitutions
I28: L 0.237 | T -0.386 | V -0.472
P35: K -0.027 | Y -0.266 | N -0.115 | M -0.075 | V -0.085 | Q -0.018 | G -0.021 | H -0.623 | R -0.094 | A -0.07 | I -0.144 | D -0.023 | C -0.066 | F -0.329 | W -0.231 | S -0.022 | L -0.29
S36: G -0.031 | Q -0.024 | K 0.147 | P -0.883 | L -0.341 | M -0.284 | T -0.085 | Y -0.349 | N -0.381 | D -0.033 | E -0.279 | R -0.073 | F -0.279
W38: L -0.211
I31: F -0.462 | L 0.001 | W -0.479 | D -0.359 | A -0.346 | Y -0.25 | Q -0.48 | S -0.58 | M -0.051 | P -0.87 | T -0.2 | E -0.26 | N -0.891 | V -0.054 | K -0.478 | C -0.089
G45: N 0.06 | F -0.321 | V -0.762 | C -0.303 | I -0.639 | D -0.075 | T -0.353 | P -0.977 | A -0.319 | R -0.337 | Q -0.149 | L -0.416 | M -0.161 | E -0.058 | H -0.1 | W -0.702
K46: C -0.099 | D -0.33 | L -0.152 | S -0.073 | H -0.172 | V -0.051 | M 0.054 | F -0.364 | P -0.715 | T -0.146 | I -0.351 | R -0.01 | G -0.411 | W -0.569
N25: F -0.302 | G -0.046 | E -0.117 | M -0.151 | I -0.833 | V -0.753 | D -0.048 | R -0.142 | S -0.088 | Q -0.058 | T -0.215 | K -0.198 | W -0.224 | P -0.878 | A -0.129 | H -0.19 | Y -0.541
A24: R -0.068 | M -0.034 | T -0.012 | W -0.481 | Y -0.528 | V -0.05 | S -0.108 | N -0.648 | Q -0.164
L43: Y -0.328 | F 0.014 | C -0.267 | A -0.123 | G -0.762 | K -0.453 | Q -0.621 | V -0.063 | T -0.113 | N -0.331 | R -0.417 | M 0.101 | E -0.701 | I 0.062 | W -0.706 | S -0.269
T40: G -0.647 | L -0.058 | W -0.062 | V 0.125 | S -0.082 | H -0.284 | P -1.01 | A -0.175 | F -0.479 | Y -0.07 | M 0.052 | Q -0.075 | N -0.382 | R -0.123 | E -0.203 | I -0.059
R44: F -0.134 | H -0.236 | G -0.137 | Q -0.071 | D -0.019 | L -0.164 | M -0.179 | V -0.19 | S -0.08 | E -0.319 | W -0.467 | K -0.181 | I -0.759 | N 0.068 | C -0.139 | A -0.074
G37: T -0.375 | F -0.797 | P -0.54 | R -0.574 | H -0.883 | V -0.781 | E -0.481 | K -0.728 | Q -0.448 | C -0.584 | L -0.617 | Y -0.811 | A -0.573 | I -0.52 | W -0.677 | M -0.545
D26: M -0.86 | W -0.987 | Q -0.263 | E -0.015 | K -1.07 | C -0.957 | P -0.981 | S -0.522 | G -0.986 | V -0.855 | H -0.94 | Y -0.776 | N -0.676 | F -0.726 | R -0.948
D34: K -0.445 | Y -0.27 | F -0.332 | I -0.939 | Q -0.431 | N 0.014 | P -0.15 | R -0.173 | E 0.06 | L -0.3 | G -0.118 | H -0.264 | S -0.126 | T -0.123 | A -0.031
W39: N -0.352 | A -0.374 | L -0.512 | F -0.114 | E -1 | G -0.453 | K -0.677 | M -0.35 | H -0.732 | P -0.559 | D -0.819 | Y -0.074 | C -0.316 | R -0.902 | I -0.179 | S -0.138
I27: W -0.466 | N -0.233 | M -0.156 | D -0.618 | E -0.432 | C -0.261 | R -0.374 | Q -0.327 | T -0.26 | L -0.15 | V -0.085 | F -0.274 | P -0.681 | G -0.927 | S -0.655 | Y -0.19 | H -0.306 | K -0.228 | A -0.47
R42: F -0.193 | G -0.125 | L -0.161 | H -0.15 | K 0.104 | N -0.005 | Q -0.028 | T -0.114 | M -0.394 | A -0.013 | P -0.897 | D -0.254 | I -0.356 | W -0.06 | E -0.049 | Y -0.366
E33: K -0.368 | L -0.343 | F -0.376 | M -0.02 | G -0.935 | S -0.398 | C -0.231 | Q 0.074 | A -0.236 | I -0.185 | H -0.758 | D -0.271 | V -0.26 | N -0.576 | P -0.751 | W -0.819
K32: M -0.1 | Q -0.139 | R -0.042 | I 0.028 | A -0.056 | D -0.242 | L -0.122 | W -0.205 | F -0.373 | N -0.009 | V -0.119 | T -0.173 | C -0.14 | G -0.097 | Y -0.105 | H 0.047 | E 0.013
G41: H -0.83 | K -1.03 | R -0.906 | F -0.756 | Q -0.767 | Y -0.88 | D -0.899 | C -0.813 | P -0.826 | L -0.474 | S -0.998 | A -0.8 | N -0.87 | V -0.9
I30: Y -1 | N -0.85 | S -0.992 | R -1.01 | E -0.864 | L -0.077 | T -0.745 | D -0.628 | V 0.058 | K -1.04 | M -0.465 | H -0.765 | A -0.78 | F -0.736 | C -0.378 | W -0.967 | Q -0.891 | G -0.719
D29: T -0.062 | M -0.243 | F -0.408 | G -0.478 | Y -0.285 | C -0.298 | W -0.312 | I -0.345 | P -1.03 | A -0.205 | Q -0.241 | R -0.387 | H -0.193 | E -0.072 | N -0.277 | K -0.555 | V -0.303 | S -0.185
